Test results: a protein production outcome set (Wang et al. 2014)

Assay: label from the status in PepcDB records
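Note: failed if final PepcDB status was selected cloned or expressed and not failed if soluble or beyond.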

Sequence	protein production
MNILLAFKAEPDAGMLAEKEWQAAQGNSGPDVSLLRSLLGADEQAAAALLLAQRKNGTSMSLTALSMGDERALHWLRYLMALGFEDAVLLETAADLRFAPEFVARHIAEWQYQNPLELIITGCQSSEGQNGQTPFLLAEMLGWPCFTQVERFTLDAPFITLEQRTENGLRCCRVRLPAVIAVRQCGEVALPVPGMRQRMAAGKAEIIRKTVAAEMPAMQCLQLARAEQRRGATLIDGQTVAEKAQKLWQYYLCQRMQ	failed
MNILNNKNKRTSIFKALALCLFAAVSFTFVSCDDDMDIQQSYPFTVETMPVPNKVTKGQTVEIRCELKKTGDFANTLYTIRYFQFEGEGTLKMDNGITFLPNDRYLLENEKFRLYYTAQGDEAHNFIVVVEDNFGNSYELEFDFNNRNVKDDGVITVVPIGNFKPLTR	failed
MNILYNERIDGVLPAVDKQQLLDELRRQLPDLDVLHRTEELRPYECDGLSAYRTTPMLVVLPRHLEEVQTLLRLCHAHRVPVVARGAGTGLSGGALPLEKGVLLVMARFNQILAIDPAARVARVQPGVRNLAISQAAAPHGLYYAPDPSSQIACSIGGNVAENAGGVHCLKYGLTVHNLLKVEILTVEGEAMTLGSDTLDSPGFDLLALFTGSEGMLGIITEVTVKLLPRPQVAKVLLAAFDSVEKAGRAVADIIAAGIIPGGLEMMDNLAIRAAEDFIHAGYPVDAEAILLCELDGVEADVHADCERVREVLTQAGATEVRQAIDEAERVRFWAGRKNAFPAVGRLSPDYYCMDGTIPRRALPGVLRGISELSGQYGLRVANVFHAGDGNMHPLILFDANQPGELQRAEALGGKILELCVEVGGSITGEHGVGREKINQMCAQFNSDELTFFHAIKAAFDASGMLNPGKNIPTLQRCAEFGAMHIHAGQLPFPELERF	failed
MNINGIKLLSSRAVSKLGDVFYDYGNSTWIASMGGLGQKILGIYQIVELLVSIVLNPFGGALADRFQRRKILLITDAICAIMCFLLSFIGDDKVMVYGLIVANAILAVSNAFSSPAYKSYIPEIVDKADIITYNANLETIVQIISVSSPVLGFLIFNNFGIRITLIVDAITFLISFLFLYAIKVERVQLSKQEKVAIKNILADIADGFTYIKKEKEIMFFLIIAALLNTFLAMFNYLLPFTNSLLKTSGAYATILSISAIGSIIGALIARKIKSSINSMLSMLVFSSLGVIVMGFPSLFELPIWIPYSGSFLFNSLLTMFNIHFFSQVQIRVDEAYMGRVMSTIFTIAIMFMPIGTLFMTIFSFALSNVSFIVIGCAIAILGGLGFSYSKKQF	failed
MNINVAELLNGNYILLLFVVLALGLCLGKLRLGSIQLGNSIGVLVVSLLLGQQHFSINTDALNLGFMLFIFCVGVEAGPNFFSIFFRDGKNYLMLALVMVGSALVIALGLGKLFGWDIGLTAGMLAGSMTSTPVLVGAGDTLRHSGMESRQLSLALDNLSLGYALTYLIGLVSLIVGARYLPKLQHQDLQTSAQQIARERGLDTDANRKVYLPVIRAYRVGPELVAWTDGKNLRELGIYRQTGCYIERIRRNGILANPDGDAVLQMGDEIALVGYPDAHARLDPSFRNGKEVFDRDLLDMRIVTEEVVVKNHNAVGKRLAQLKLTDHGCFLNRVIRSQIEMPIDDNVVLNKGDVLQVSGDARRVKTIADRIGFISIHSQVTDLLAFCAFFVIGLMIGMITFQFSTFSFGMGNAAGLLFAGIMLGFMRANHPTFGYIPQGALSMVKEFGLMVFMAGVGLSAGSGINNGLGAIGGQMLIAGLIVSLVPVVICFLFGAYVLRMNRALLFGAMMGARTCAPAMEIISDTARSNIPALGYAGTYAIANVLLTLAGTIIVMVWPGLG	failed
MNIQIILSLIFSMILMACTTSSPQKDLSRICDSSGCSDRSGNYVSNHSSAASSDEEARIRVLEDVARQDPRAAYDLGLRYFRGDGVRQDSYQALQWMREAAERGDLNAQKALGRLYLTGLEEMGADYREAEKWLRIAASRGDKESEQLLVEAAAFASEERRSGEIYHRWVNRWQPVFYQRWYYGYPYLGTWRGNYWYY	failed
MNIRHIRNATAVIEYGGKRILIDPMLSDKGSFDPFPNSPRQDQKNPLVELPMAIEDIINDIDLVILTHLHIDHFDPKAIEVLPKDIKIYAQNEEDASEVERYGFTNVSVFNDVTHIGEIELIKTDAQHGHGEILKMTGHVHGMILKHSEEPTLYLAADTVWFEGVEKALKTYQPDVVVLNGGANQFFEGGPLVMDEHDVLKVANTLPLAQIVVVHMEAVNHWHLSRKELNEFINSNDLGNRVVVPNDGELLTFEK	failed
MNIRRARPDDLMNMQHCNLLCLPENYQMKYYFYHGLSWPQLSYIAEDEDGKIVGYVLAKMEEDPDDVPHGHITSLAVKRSHRRLGLAQKLMDQASRAMIENFSAKYVSLHVRKSNRAALHLYSNTLNFQVSEVEPKYYADGEDAYAMKRDLSQMADELRRQLVLKKGRYVVLGSKENQGSTLPGSEEASQQENLAGGDSGSDGKDSTDVQDSLQTLGSAS	failed
MNITLGYIDPVAFSLGPIQVRWYGIIIACGILLGYFIAQAALKQVGLHKDTLIDIIFYSAIVGFIVARIYFVTFQWPYYMNHLSEIPKIWHGGIAIHGGLIGGLISGIIVCKIKNLHPFQIGDIVAPSIILAQGIGRWGNFMNHEAHGGPVSRAFLEHLHLPDFIIRNMYIEGQYYHPTFLYESIWDVIGFVILITLRKRLKLGETFFGYLIWYSVGRFFVEAMRTDSLMLTSHIRVAQLVSVVLILISVIFVIYRRVKYQPIKYENSGPLTWPIKKAK	failed
MNITLLKSKIHRASVTEARLDYIGSISIDEKLLQASGILEYEKVQVVNVNNGARFETYTIATQEEGVVCLNGAAARLAEVGDKVIIMSYADFNEEEAKTFKPKVVFVDENNTATKITNYEKHGAIF	not failed
MNITVNDRECSAQVGDRLLDIARANHSHIGYFCGGNAICQTCYVRVLEGAELLSPMSDAEKAMLSDKLIKEGTRMACQTLIEKPGKITVLSEVEAAKRLTLENPLQLPAYMGKMGWEAAVKFTDTIAFQARREQGEHALEPTQLLHDVAAAISDAIQLVFNAVQAAFGVNRSTDKPEIKADKGCGCDTTLLAKTATCDNGHGRIVSPEVLQLHQERSAVCN	failed
MNIVENEICIRTLIDDDFPLMLKWLTDERVLEFYGGRDKKYTLESLKKHYTEPWEDEVFRVIIEYNNVPIGYGQIYKMYDELYTDYHYPKTDEIVYGMDQFIGEPNYWSKGIGTRYIKLIFEFLKKERNANAVILDPHKNNPRAIRAYQKSGFRIIEDLPEHELHEGKKEDCYLMEYRYDDNATNVKAMKYLIEHYFDNFKVDSIEIIGSGYDSVAYLVNNEYIFKTKFSTNKKKGYAKEKAIYNFLNTNLETNVKIPNIEYSYISDELSILGYKEIKGTFLTPEIYSTMSEEEQNLLKRDIASFLRQMHGLDYTDISECTIDNKQNVLEEYILLRETIYNDLTDIEKDYIESFMERLNATTVFEGKKCLCHNDFSCNHLLLDGNNRLTGIIDFGDSGIIDEYCDFIYLLEDSEEEIGTNFGEDILRMYGNIDIEKAKEYQDIVEEYYPIETIVYGIKNIKQEFIENGRKEIYKRTYKD	failed
MNIVTLLGSPRSRGISAAIAARFTDTAAGLGAQTRTFELNRLAYRGCQGCYACKKTLDHCVLTDDLAQVLDAVRGADVVVLASPVYYGDVTAQLKGFIDRTFSYLKPDYLSNPQPSRLSPKKLVFVLTQGHPDEGMFADIFPRYEGFLTWLGFVDARLIRACGFGPSTVDKVPEQYLREAEQAAREIVGQGKG	failed
MNKDFTFTIKSSCFDENYNPSENTRITTNFANLARGKSRQENLRNTLVMMDNRFNTLAYWDNPKANRYSVELEIISVEIDIEGNGDTFPAIEILKTNIVDKKTNERIEGIVGNNFSSYVRDYDFSVLLPEHNKSHPGFSTPDNFGDLHGKLFKCFTNSKFYKDNFNKQPVICLSVSSKNTYHRTGNQHPVLGIEYQQNEPSLTDHYFERMGLQARYFMPANSVAPLAFYFSGDLLNDYTNLELISTISTMETFQKIYRPEIYNANSAAGQYYQPNLNNQDHSLTKIVYDRVERSQLAIEQGKFTEEHFIKPYKNILEQWSAHYAR	not failed
MNKEALVNRLNASAKRQKADIVIKNGKIMDVYNQEWIYEDIAITDGVIVGLGEYEGENIIDAEGQMIVPGFIDGHVHIESSMVTPIEFAKAVLPHGVTTVVTDPHEIANVSGEKGIEFMLEQARHTPLNIHFMLPSSVPAASFERSGAILKAADLKPFYEEEEVLGLAEVMDYVSVQQAEKDMVQKLLDARVAGKRIDGHLAGLSTDLINIYRTAFVLNDHEVTSKEEALDRIRRGMYVMMREGSVAKNTLNVLPAVNEKNRTPVFFCTDDKHVDDLLSEGSVNHQVKMAIQAGLNPFLAYQLGSLNAAECYGLDTKGAIAPGFDADLLFVSDLENVTVTMTMVKGQTVAEDSKAVYQDHASTAAPDQALLDSVKLAAPLNKQDFHMPIDSEQQINVIQIIPNQLETRLVQVPAPVAREFEPDTELDLLKIAVVERHKGLKETGLGVVKGFGFKSGAIATTISHDSHNIIAVGTNDEDIAAAVNKLQEIGGGLTIIKNGEELHSVPLPIAGLLSDQSAEQVNQSLLTLHDKLSLIGFTGGFNPFLTLSFLALPVIPDIKMTTTGLFDVKSFQHISLQLEHHHHHH	not failed
MNKEEQEDPQQEQISTVQENDPRNLQQLGMLLVSPGLDEDRLSEKMISKIKKSRDIEKNQKLLISRLSQKEEDHSGKPPTITTSPAEKTVPFKSLNHSLKRKRVPPALNFSDIQASSHLHGSKSAPPNITRFPQHKNSLRVRYMGRMAPTNQDYHPSVANSYMTATYPYPYTGLPPVPCYPYSSTPTQTHAYEGYYSPMYPGPLYNNGIIPADYHAKRKKLAGRSPHLEDLTSRKRTFVSKHHNGDPIISKTDEDIECSVTKNSLSEGASLNDDADDDNDKERIIIGEISLYDDVFKFEVRDDKNDYMKACETIWTEWHNLKK	failed
MNKFIKYFLILLSFGLLVVPIIFATQLYQSSESAFESSQNTKDSQRKSTLRDSKVDPEKQPISILFLGIDDNEGREKNGQSVEHSRSDAMILSTFNQKKHQIRMLSIPRDTISYIPKVGYYDKITHAHAYGGPLAAMDSVEATMNVPVDYYVRINMKAFVEAVDELGGIYYDVPYNLNEPNSDDTGRIKIKKGYQKLNGDQALAVARTRHHDSDLKRGQRQMELIKILFQKAQNLKSIDKLDNVISIVGKNAKHNLTQKEIKSLAKMYLGGSTEIKTSQLKGKDDYLNDIYYYHPSVKSIMEYSNLLRNDLDLSKITNKNDFLDQRVIKRYGSLVPLTELDEDLLRKNQKESTDSQKESDSSSQNNDEEDQTNEQTDQNSLNGNEQYPNQQDNNQTNGENGMINNDNYPYAQ	failed
MNKKRMIAMVSTALLVTGCAEVGNAQTVAVENSGQSVQKNIVKSIQSQANPLKTIEPSKPFEDLKPLKKMIGNAQYVGLGENTHGSSEIFTMKFRLVKYLVTEMGFTNFAMEEDWGNGLKLNEYIQTGKGNPREFLKLLYPTDEIIAMIEWMKDYNADPSNKKKIQFIGLDLKALDQGSFNKVIDYVRLHRPDLLAEVEENYKELSSFTGSIQEYMKLTPKLKEKFKANAERVARLLKDENEQANTEIIPSEYIWAKATASAIEKFTTMLLPNDYPSIIKLHEQYLADHAMWAQETFGGKTMVWAHNIHIAKGIIDEKLYPYVAGQFLKERLDNNYVTIGSTTTEGNFTLYSEYNPSTGGKITTDTIPQDVKSFNYTLGKVPYKMFLLDNRHLKGQAEKWVKAKRPLLSIGGQILPNSSVYFDTSLLEQFDIIFHIRKTSPSHIKLEHHHHHH	not failed
MNKNILFLSLMALPVFAFAENNLVLPTITVSAEQQVQSYAADRLNKQAALGSLGEKSVLDTPFSLVSYSDVMIRDQQASTVSEVLRADPSIRETTNAGHLNENLQIRGFTVGFEDYNINGLYGMSPSGRIPTDILDHVTLLEGPNALVAGMAPAGSVGGVVMAQTKRATKDL	failed
